Measured values taken from IntAct's records for PubMed 21850687.

B1: Thioredoxin-dependent peroxide reductase, mitochondrial (Homo sapiens), P30048 (parent)
chain: MAAAVGRLLRASVARHVSAIPWGISATAALRPAACGRTSLTNLLCSGSSQAKLFSTSSSCHAPAVTQHAPYFKGTAVVNGEFKDLSLDDFKGKYLVLFFYPLDFTFVCPTEIVAFSDKANEFHDVNCEVVAVSVDSHFSHLAWINTPRKNGGLGHMNIALLSDLTKQISRDYGVLLEGSGLALRGLFIIDPNGVIKHLSVNDLPVGRSVEETLRLVKAFQYVETHGEVCPANWTPDSPTIKPSPAASKEYFQKVNQ

Variants of: B1
Conditions: with lrrk2_human LRRK2, Q5S007
Sequence of lrrk2_human LRRK2, Q5S007 (Q5S007 whole entry): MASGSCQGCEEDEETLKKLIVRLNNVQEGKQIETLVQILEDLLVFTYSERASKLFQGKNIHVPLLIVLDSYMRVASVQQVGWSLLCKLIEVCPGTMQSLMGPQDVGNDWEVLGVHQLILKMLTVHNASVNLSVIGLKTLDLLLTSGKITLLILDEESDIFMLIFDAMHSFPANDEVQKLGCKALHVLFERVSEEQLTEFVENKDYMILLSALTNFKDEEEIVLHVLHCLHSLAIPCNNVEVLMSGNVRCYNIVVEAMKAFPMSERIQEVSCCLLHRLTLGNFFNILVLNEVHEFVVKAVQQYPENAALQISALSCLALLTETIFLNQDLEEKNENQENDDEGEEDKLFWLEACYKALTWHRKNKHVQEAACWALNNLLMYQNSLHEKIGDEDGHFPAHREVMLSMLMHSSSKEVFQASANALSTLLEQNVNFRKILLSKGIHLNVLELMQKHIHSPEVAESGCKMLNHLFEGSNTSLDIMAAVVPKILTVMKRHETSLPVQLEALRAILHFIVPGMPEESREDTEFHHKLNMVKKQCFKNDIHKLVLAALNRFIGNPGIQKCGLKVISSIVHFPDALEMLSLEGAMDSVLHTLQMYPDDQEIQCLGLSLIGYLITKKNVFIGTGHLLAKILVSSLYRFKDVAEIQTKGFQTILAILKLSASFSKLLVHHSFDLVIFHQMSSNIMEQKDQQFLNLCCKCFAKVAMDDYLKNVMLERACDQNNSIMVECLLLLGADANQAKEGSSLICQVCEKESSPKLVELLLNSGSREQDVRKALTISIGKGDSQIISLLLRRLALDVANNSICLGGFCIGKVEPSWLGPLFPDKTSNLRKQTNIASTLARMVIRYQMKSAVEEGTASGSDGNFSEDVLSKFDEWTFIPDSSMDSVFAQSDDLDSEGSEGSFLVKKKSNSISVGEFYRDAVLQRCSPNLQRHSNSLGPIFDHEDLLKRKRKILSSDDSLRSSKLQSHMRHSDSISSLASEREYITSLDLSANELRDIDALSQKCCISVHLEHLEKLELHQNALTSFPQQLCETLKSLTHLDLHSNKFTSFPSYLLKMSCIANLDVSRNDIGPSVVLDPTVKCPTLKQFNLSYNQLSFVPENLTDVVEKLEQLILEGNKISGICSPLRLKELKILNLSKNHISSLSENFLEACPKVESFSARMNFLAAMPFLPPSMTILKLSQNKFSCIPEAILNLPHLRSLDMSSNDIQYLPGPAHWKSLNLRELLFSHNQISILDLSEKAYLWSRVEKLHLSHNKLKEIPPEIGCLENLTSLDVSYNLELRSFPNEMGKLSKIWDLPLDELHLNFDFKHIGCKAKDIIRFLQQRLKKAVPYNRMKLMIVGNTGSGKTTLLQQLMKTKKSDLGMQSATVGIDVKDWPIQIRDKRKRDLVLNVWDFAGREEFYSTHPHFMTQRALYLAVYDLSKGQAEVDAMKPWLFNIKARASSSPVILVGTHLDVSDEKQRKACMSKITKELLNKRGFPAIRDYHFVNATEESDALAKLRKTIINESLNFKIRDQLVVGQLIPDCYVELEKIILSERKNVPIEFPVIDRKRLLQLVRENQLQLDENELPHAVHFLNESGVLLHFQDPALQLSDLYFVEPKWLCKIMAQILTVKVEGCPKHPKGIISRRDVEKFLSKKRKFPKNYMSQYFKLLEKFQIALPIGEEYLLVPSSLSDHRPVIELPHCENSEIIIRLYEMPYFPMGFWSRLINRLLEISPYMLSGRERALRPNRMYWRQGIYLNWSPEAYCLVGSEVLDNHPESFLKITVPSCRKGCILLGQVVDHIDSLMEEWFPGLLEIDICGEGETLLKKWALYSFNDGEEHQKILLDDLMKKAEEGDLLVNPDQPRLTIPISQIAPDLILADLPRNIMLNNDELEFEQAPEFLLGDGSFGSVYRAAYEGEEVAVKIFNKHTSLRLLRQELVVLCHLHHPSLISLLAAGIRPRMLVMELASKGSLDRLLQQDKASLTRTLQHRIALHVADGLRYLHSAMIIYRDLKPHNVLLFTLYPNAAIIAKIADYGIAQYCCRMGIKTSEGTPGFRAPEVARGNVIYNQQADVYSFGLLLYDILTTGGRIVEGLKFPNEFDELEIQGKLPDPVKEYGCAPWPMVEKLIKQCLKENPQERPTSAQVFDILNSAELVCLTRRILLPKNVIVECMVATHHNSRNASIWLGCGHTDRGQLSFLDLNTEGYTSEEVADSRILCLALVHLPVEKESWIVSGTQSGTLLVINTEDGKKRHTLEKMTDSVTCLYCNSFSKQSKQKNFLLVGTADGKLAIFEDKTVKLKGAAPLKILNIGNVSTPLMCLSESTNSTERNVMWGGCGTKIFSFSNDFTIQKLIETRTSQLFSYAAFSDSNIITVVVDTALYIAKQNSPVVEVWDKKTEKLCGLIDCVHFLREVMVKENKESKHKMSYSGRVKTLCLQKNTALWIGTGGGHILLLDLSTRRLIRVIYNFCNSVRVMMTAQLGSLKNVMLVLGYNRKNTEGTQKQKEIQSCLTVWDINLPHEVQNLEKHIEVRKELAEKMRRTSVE
T146A was tested, and the “effect of a mutation on the interaction” value was “disrupting interaction”.
